According to patent US20190225692A1 (JUNO THERAPEUTICS, published 2019):

B1: TCR 10 (native, expressed by clonal T cell line) (TCR, V domains shown)
V domain 1: RKEVEQDPGPFNVPEGATVAFNCTYSNSASQSFFWYRQDCRKEPKLLMSVYSSGNEDGRFTAQLNRASQYISLLIRDSKLSDSATYLCVVNFPSRGAGGTSYGKLTFGQGTILTVHP
V domain 2: DVKVTQSSRYLVKRTGEKVFLECVQDMDHENMFWYRQDPGLGLRLIYFSYDVKMKEKGDIPEGYSVSREKKERFSLILESASTNQTSMYLCASSLSLTGNYGYTFGSGTRLTVVE
B2: modified version of TCR 9 (codon optimized, cysteine modified) (TCR)
TCR alpha: AQKITQTQPGMFVQEKEAVTLDCTYDTSDPSYGLFWYKQPSSGEMIFLIYQGSYDQQNATEGRYSLNFQKARKSANLVISASQLGDSAMYFCAMRTAGGTSYGKLTFGQGTILTVHPNIQNPDPAVYQLRDSKSSDKSVCLFTDFDSQTNVSQSKDSDVYITDKCVLDMRSMDFKSNSAVAWSNKSDFACANAFNNSIIPEDTFFPSPESSCDVKLVEKSFETDTNLNFQNLSVIGFRILLLKVAGFNLLMTLRLWSS
TCR beta: NAGVTQTPKFRVLKTGQSMTLLCAQDMNHEYMYWYRQDPGMGLRLIHYSVGEGTTAKGEVPDGYNVSRLKKQNFLLGLESAAPSQTSVYFCASSYFGTAYEQYFGPGTRLTVTEDLKNVFPPEVAVFEPSEAEISHTQKATLVCLATGFYPDHVELSWWVNGKEVHSGVCTDPQPLKEQPALNDSRYCLSSRLRVSATFWQNPRNHFRCQVQFYGLSENDEWTQDRAKPVTQIVSAEAWGRADCGFTSESYQQGVLSATILYEILLGKATLYAVLVSALVLMAMVKRKDSRG
B3: modified version of TCR 3 (codon optimized, cysteine modified) (TCR)
TCR alpha: AQKITQTQPGMFVQEKEAVTLDCTYDTSDQSYGLFWYKQPSSGEMIFLIYQGSYDEQNATEGRYSLNFQKARKSANLVISASQLGDSAMYFCAMREGRGFKTIFGAGTRLFVKANIQKPDPAVYQLRDSKSSDKSVCLFTDFDSQTNVSQSKDSDVYITDKCVLDMRSMDFKSNSAVAWSNKSDFACANAFNNSIIPADTFFPSPESSCDVKLVEKSFETDTNLNFQNLSVIGFRILLLKVAGFNLLMTLRLWSS
TCR beta: GAGVSQSPRYKVAKRGQDVALRCDPISGHVSLFWYQQALGQGPEFLTYFQNEAQLDKSGLPSDRFFAERPEGSVSTLKIQRTQQEDSAVYLCASSHLAGFTGELFFGEGSRLTVLEDLKNVFPPEVAVFEPSEAEISHTQKATLVCLATGFYPDHVELSWWVNGKEVHSGVCTDPQPLKEQPALNDSRYCLSSRLRVSATFWQNPRNHFRCQVQFYGLSENDEWTQDRAKPVTQIVSAEAWGRADCGFTSESYQQGVLSATILYEILLGKATLYAVLVSALVLMAMVKRKDSRG
B4: modified version of TCR 8 (codon optimized, cysteine modified) (TCR, V domains shown)
V domain 1: KQEVTQIPAALSVPEGENLVLNCSFTDSAIYNLQWFRQDPGKGLTSLLLIQSSQREQTSGRLNASLDKSSGRSTLYIAASQPGDSATYLCAVRPLGNTPLVFGKGTRLSVIA
V domain 2: KVTQSSRYLVKRTGEKVFLECVQDMDHENMFWYRQDPGLGLRLIYFSYDVKMKEKGDIPEGYSVSREKKERFSLILESASTNQTSMYLCASSLWGASTDTQYFGPGTRLTVLE

Assays:
[1] = biological target: T1, HLA-A2/E6 (29-38) tetramer (human; HPV 16); experiment: tetramer staining of clonal T cell line, flow cytometry
T1 construct: also called E6(29-38) peptide-MHC tetramer; E6(29-38)-loaded tetramer

[2] = biological target: HPV 16 E6(29-38) peptide in the context of HLA-A02:01 on target cells (human; HPV 16); experiment: cell-based or functional assay
[3] = biological target: HPV 16 E7(11-19) peptide in the context of HLA-A02:01 on target cells (human; HPV 16); experiment: cell-based or functional assay
[4] = biological target: T1, HLA-A2/E6 (29-38) tetramer; experiment: tetramer flow cytometry; transfected Jurkat-derived cells, CD8+ population
Method: For transfection, the CD4+ and CD4+/CD8+ cell mixtures were transiently transfected with TCR-encoding plasmids and 48 hours after transfection, cells were assessed by flow cytometry for (1) binding of the target peptide in the context of an MHC molecule (HLA:A02:01) by staining with an E6(29-38) peptide- or an E7(11-19) peptide-MHC tetramer reagent, and/or (2) CD8+ independent binding of the target by co-staining the tetramer-labeled cells with an anti-CD8 antibody.

Binder | binding result [1] | % CD8+/IC IFNγ+; transduced primary CD8+ T cells with T2 cells pulsed with 10 uM E6(29-38) peptide, E:T 10:1, 4 h [2] [%] | % CD8+/IC IFNγ+; transduced primary CD8+ T cells with T2 cells pulsed with 10 uM E7(11-19) peptide (control peptide), E:T 10:1, 4 h [3] [%] | % cells in E6 tet+/CD8+ quadrant [4] [%] | % cells in E6 tet+/CD8- quadrant [4] [%] | % cells in E6 tet-/CD8+ quadrant [4] [%] | % cells in E6 tet-/CD8- quadrant [4] [%]
B1 | binds | – | – | – | – | – | –
B2 | – | 91.1 | 19.5 | 42.5 | 0.051 | 55.6 | 1.89
B3 | – | 95.1 | 2.51 | – | – | – | –
B4 | – | 95 | 11.4 | – | – | – | –
